From patent US20130079278A1 (Novo Nordisk, published 2013)
*1 amine or outer side, *2 acyl side, *3 side chain or, on linkers, in order; H or OH if unused. Where no end group is shown, it is not given here. Side-chain parts run from the residue outwards. The star is where a group is joined. X1 = 4‑(16-(1H-tetrazol-5-yl)hexadecanoylsulfamoyl)butanoyl, O=C(CCCCCCCCCCCCCCCc1nnn[nH]1)NS(=O)(=O)CCCC(=O)*; X2 = 4‑(16-(1H-tetrazol-5-yl)hexadecanoylsulfamoyl)butanoyl, O=C(CCCCCCCCCCCCCCCc1nn[nH]n1)NS(=O)(=O)CCCC(=O)*; C18 diacid = O=C(O)CCCCCCCCCCCCCCCCC(=O)*; C16 diacid = O=C(O)CCCCCCCCCCCCCCC(=O)*; γGlu = O=C(O)[C@H](CCC(=O)[*:2])N[*:1]; AEEA = NCCOCCOCC(=O)O

target: glucagon receptor (human, UniProt P47871 26-477); assay: cell-based or functional assay
Sequence (P47871 26-477): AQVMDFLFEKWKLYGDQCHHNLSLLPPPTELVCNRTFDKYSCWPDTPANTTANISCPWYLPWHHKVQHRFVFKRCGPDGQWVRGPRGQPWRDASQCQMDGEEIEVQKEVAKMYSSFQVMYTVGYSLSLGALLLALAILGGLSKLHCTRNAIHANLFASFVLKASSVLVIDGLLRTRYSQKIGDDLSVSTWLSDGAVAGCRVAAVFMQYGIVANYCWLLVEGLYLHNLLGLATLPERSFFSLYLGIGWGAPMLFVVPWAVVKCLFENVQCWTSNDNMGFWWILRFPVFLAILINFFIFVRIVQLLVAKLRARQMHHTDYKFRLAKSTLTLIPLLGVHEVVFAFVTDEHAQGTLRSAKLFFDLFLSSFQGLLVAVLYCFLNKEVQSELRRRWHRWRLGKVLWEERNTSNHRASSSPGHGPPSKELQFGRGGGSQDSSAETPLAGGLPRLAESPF

Binder | Assay (I) Glucagon [EC50] [pM]
HSQGTFTSDYSRYLDLRRAQDFVK([γGlu-γGlu-AEEA-AEEA-γGlu-X2])WLLST | 231
HSHGTFTSDYSKYLDSKRAQEFVK([γGlu-γGlu-AEEA-γGlu-C18 diacid])WLLST | 77
HSQGTFTSDYSKYLESRRAQDFVK([γGlu-γGlu-AEEA-X1])WLLST | 395
HSQGTFTSDVSRYLDTRRAQEFVK([γGlu-AEEA-AEEA-γGlu-γGlu-C18 diacid])WLLST | 176
HSQGTFTSDVSKYLDTRRAQEFVK([γGlu-AEEA-AEEA-γGlu-γGlu-C18 diacid])WLLST-NH2 (N-terminus assumed; SMILES CC(C)C[C@H](NC(=O)[C@H](Cc1c[nH]c2ccccc12)NC(=O)[C@H](CCCCNC(=O)CC[C@H](NC(=O)COCCOCCNC(=O)COCCOCCNC(=O)CC[C@H](NC(=O)CC[C@H](NC(=O)CCCCCCCCCCCCCCCCC(=O)O)C(=O)O)C(=O)O)C(=O)O)NC(=O)[C@@H](NC(=O)[C@H](Cc1ccccc1)NC(=O)[C@H](CCC(=O)O)NC(=O)[C@H](CCC(N)=O)NC(=O)[C@H](C)NC(=O)[C@H](CCCNC(=N)N)NC(=O)[C@H](CCCNC(=N)N)NC(=O)[C@@H](NC(=O)[C@H](CC(=O)O)NC(=O)[C@H](CC(C)C)NC(=O)[C@H](Cc1ccc(O)cc1)NC(=O)[C@H](CCCCN)NC(=O)[C@H](CO)NC(=O)[C@@H](NC(=O)[C@H](CC(=O)O)NC(=O)[C@H](CO)NC(=O)[C@@H](NC(=O)[C@H](Cc1ccccc1)NC(=O)[C@@H](NC(=O)CNC(=O)[C@H](CCC(N)=O)NC(=O)[C@H](CO)NC(=O)[C@@H](N)Cc1c[nH]cn1)[C@@H](C)O)[C@@H](C)O)C(C)C)[C@@H](C)O)C(C)C)C(=O)N[C@@H](CC(C)C)C(=O)N[C@@H](CO)C(=O)N[C@H](C(N)=O)[C@@H](C)O) | 156
HSQGTFTSDYSRYLDLRRAQDFVK([γGlu-γGlu-γGlu-γGlu-C16 diacid])WLLST | 109
HSQGTFTSDYSKYLESRRAQDFVK([γGlu-γGlu-AEEA-AEEA-γGlu-C16 diacid])WLLST | 71
HSQGTFTSDVSKYLDLRRAQEFVK([γGlu-AEEA-AEEA-γGlu-γGlu-C18 diacid])WLLST | 88
HSQGTFTSDYSKYLESRRAQDFVK([γGlu-γGlu-AEEA-AEEA-γGlu-C18 diacid])WLLST-NH2 (N-terminus assumed; SMILES CC(C)C[C@H](NC(=O)[C@H](Cc1ccc(O)cc1)NC(=O)[C@H](CCCCN)NC(=O)[C@H](CO)NC(=O)[C@H](Cc1ccc(O)cc1)NC(=O)[C@H](CC(=O)O)NC(=O)[C@H](CO)NC(=O)[C@@H](NC(=O)[C@H](Cc1ccccc1)NC(=O)[C@@H](NC(=O)CNC(=O)[C@H](CCC(N)=O)NC(=O)[C@H](CO)NC(=O)[C@@H](N)Cc1c[nH]cn1)[C@@H](C)O)[C@@H](C)O)C(=O)N[C@@H](CCC(=O)O)C(=O)N[C@@H](CO)C(=O)N[C@@H](CCCNC(=N)N)C(=O)N[C@@H](CCCNC(=N)N)C(=O)N[C@@H](C)C(=O)N[C@@H](CCC(N)=O)C(=O)N[C@@H](CC(=O)O)C(=O)N[C@@H](Cc1ccccc1)C(=O)N[C@H](C(=O)N[C@@H](CCCCNC(=O)CC[C@H](NC(=O)CC[C@H](NC(=O)COCCOCCNC(=O)COCCOCCNC(=O)CC[C@H](NC(=O)CCCCCCCCCCCCCCCCC(=O)O)C(=O)O)C(=O)O)C(=O)O)C(=O)N[C@@H](Cc1c[nH]c2ccccc12)C(=O)N[C@@H](CC(C)C)C(=O)N[C@@H](CC(C)C)C(=O)N[C@@H](CO)C(=O)N[C@H](C(N)=O)[C@@H](C)O)C(C)C) | 134
HSQGTFTSDYSKYLESRRAQDFVK([γGlu-γGlu-AEEA-AEEA-γGlu-C18 diacid])WLLQT | 517
HSQGTFTSDVSKYLDTRRAQEFVK([AEEA-AEEA-γGlu-γGlu-γGlu-C18 diacid])WLLST | 80
HSQGTFTSDYSKYLESRRAQDFVK([γGlu-γGlu-AEEA-AEEA-γGlu-C18 diacid])WLEST | 682
HSQGTFTSDYSRYLDLRRAQDFVK([γGlu-γGlu-AEEA-AEEA-X1])WLLST | 357
HSQGTFTSDYSKYLDVRRAQDFVK([γGlu-γGlu-AEEA-AEEA-γGlu-C18 diacid])WLLNT | 81
HSQGTFTSDYSRYLDARRAQDFVK([γGlu-γGlu-γGlu-γGlu-C16 diacid])WLLST | 106
HSQGTFTSDYSKYLESRRAQDFVK([γGlu-γGlu-AEEA-γGlu-X1])WLLST | 362
HSQGTFTSDYSRYLESRRAQDFVK([γGlu-γGlu-AEEA-AEEA-γGlu-C16 diacid])WLLST | 140
HSQGTFTSDYSRYLDARRAQDFVK([γGlu-γGlu-γGlu-C16 diacid])WLLST | 16
HSQGTFTSDYSRYLESRRAQEFVK([γGlu-γGlu-AEEA-AEEA-γGlu-C16 diacid])WLLST | 72
